# Assay results published in patent US5227469A, “Platelet aggregation inhibitors from the leech” (Genentech, Inc., priority 1990, dated 1993).
# Read-outs that look alike come from different tables or passages of the source. No end group written: not given here.
# B1: ornatin C (other)
# chain: IYVRPTKDELLYCGEFRELGQPDKKCRCDGKPCTVGRCKFARGDADDKCTSA
# Columns and labels:
# [1] = target: T1, GP IIb IIIa (Homo sapiens, UniProt P05106+P08514); test: Fg/GP IIb IIIa solid phase ELISA (inhibition of GP IIb IIIa binding to immobilized fibrinogen); details: for activity in GP IIb IIIa /Fg ELISA compared with decorsin purified from whole leech homogenate: specific activity (IC50); for half maximal dilution / total units / specific activity (U/mg): Table III; for half maximal dilution: dilution giving half maximal response in ELISA, fractions from 310 g P. ornata; for total units: half maximal dilution multiplied by total volume in ml; for specific activity (U/mg): total units per mg total protein
# T1 construct: GP IIb IIIa was purified from outdated human platelets as previously described; from tissue; host or cells: outdated human platelets
# Protocol: The Fg/GP IIb IIIa ELISA was performed by a modification of the method of Nachman and Leung (Nachman, R. L. et al. (1982) J. Clin. Invest. 69, 263-269) according to the following protocol, with washes of phosphate buffered saline containing 0.01% Tween 20 between each step:
# Microtiter plates were coated with purified human fibrinogen (10 μg/ml), washed, and then blocked with TACTS, 0.5% BSA. The plates were washed and samples to be evaluated were added, followed immediately by addition of purified GP IIb IIIa (40 μg/ml) in TACTS, 0.5% BSA (Calbiochem). After a 1 hr incubation, the plate was washed and AP3 (1 μg/ml) was added.
# Following a 1 hr incubation and another wash, goat anti-mouse IgG conjugated to horseradish peroxidase was added. A final wash was performed, and developing reagent buffer (0.66 mg/ml o-phenylenediamine dihydrochloride, 0.012% H2 O2, 22 mM citrate, 50 mM phosphate, pH 5.0) added; plates were incubated until color developed.
# The reaction was stopped with 1N H2 SO4 and the absorbance at 492 nm measured. A four parameter fit (Marquardt, D. W. (1963) J. Soc. Indust. Appl. Math 11, 431-441) was used to estimate the half maximal inhibition concentration.
# [2] = test system: human platelet rich plasma (PRP)
# Protocol: The Fg/GP IIb IIIa ELISA was performed as previously described (Dennis, M. S., Henzel, W. J., Pitti, R. M., Lipari, M. T., Napier, M. A., Deisher, T. A., Bunting S. and Lazarus, R. A. (1990) Proc. Natl. Acad. Sci. USA, 87, 2471-2475; and Seymour, J. L., Henzel, W. J., Nevins, B., Stults, J. T., and Lazarus, R. A. (1990) J. Biol. Chem. 265, 10143-10147).Platelet aggregation assays were carried out in human platelet rich plasma (PRP) as reported earlier (Dennis, M. S., Henzel, W. J., Pitti, R. M., Lipari, M. T., Napier, M. A., Deisher, T. A., Bunting, S. and Lazarus, R. A. (1990) Proc. Natl. Acad. Sci. USA, 87, 2471-2475; and Seymour, J. L., Henzel, W. J., nevins, B., Stults, J. T., and Lazarus, R. A. (1990) J. Biol. Chem. 265, 10143-10147).
# Platelet aggregation assays were performed in PRP as follows:
# 50 ml whole human blood (9 parts) was drawn on 3.8% Na citrate (1 part) from a donor who had not taken any aspirin or related medication for at least two weeks. Blood was centrifuged at 160×g for 10 minutes at 22° C., allowed to stand for five minutes, and the PRP was decanted. Platelet poor plasma (PPP) was prepared from the remaining blood by centrifugation at 2000×g for 25 minutes at 22° C. PRP platelet count was measured on a Baker 9000 hematology analyzer and diluted to about 300,000 platelets/μL using PPP.
# Light transmittance was recorded after the addition of ADP (8 μM), which initiated platelet aggregation. The inhibition of platelet aggregation was measured at the maximum aggregation response.
# [3] = target: T1, GP IIb IIIa; test: Binding to immobilized GP IIb IIIa affinity resin, elution with EDTA; details: eluted by EDTA
# Protocol: Immediately before coupling, approximately 10 ml Affi-Prep 10 resin was washed with 300 ml ice cold 50 mM sodium acetate, pH 4.5 in a coarse sintered glass funnel. After removing excess buffer, approximately 4 ml washed resin was transferred to a 15 ml conical tube containing 8 mg purified GP IIb IIIa which had been previously dialyzed into 0.1M sodium bicarbonate, 2 mM CaCl2, pH 8.0.
# The coupling was carried out on a rocking platform at room temperature for 2 hours, and then overnight at 4° C. Excess reactive groups on the resin were blocked by incubation with 0.1M ethanolamine, 2 mM CaCl2, pH 9.0 for 1 hour at room temperature. The resin was then transferred to a sintered glass funnel, and washed in an alternating fashion with 20 ml aliquots of 0.1M sodium acetate, pH 4.5, and 0.1M Tris, pH 7.5, each containing 0.5M NaCl and 2 mM CaCl2, to remove any non-covalently bound material. A total of approximately 300 ml of each buffer was used in this cycle washing. Finally, the coupled GP IIb IIIa resin was washed with 100 ml 50 mM Tris, pH 7.5 containing 2 mM CaCl2 and stored at 4° C. prior to use.
# The affinity column (ca. 4 ml of resin) was equilibrated in 50 mM Tris, pH 7.5 containing 2 mM CaCl2. The neutralized TFA pool was loaded onto the column at a flow rate of 0.5 ml/min and 25 ml fractions were collected. […]
# [4] = target: glycoprotein IIb IIIa (GP IIb IIIa), purified from outdated human platelets (human) (UniProt P08514); test: GP IIb IIIa/Fg ELISA, IC50 against the reference GRGDV
# [5] = target: glycoprotein IIb IIIa (GP IIb IIIa), purified from outdated human platelets (human) (UniProt P08514); test: Fg/GP IIb IIIa solid phase ELISA, inhibition of GP IIb IIIa binding to immobilized fibrinogen
# [6] = target: GP IIb IIIa on human platelets (platelet rich plasma) (human) (UniProt P08514)
# [7] = target: glycoprotein IIb IIIa (GP IIb IIIa), purified from outdated human platelets (human) (UniProt P08514); test: Fg/GP IIb-IIIa solid phase ELISA
# [8] = target: glycoprotein IIb IIIa (GP IIb IIIa), purified from outdated human platelets (human) (UniProt P08514); test: Fg/GP IIb IIIa ELISA units per mg protein
# [9] = target: glycoprotein IIb IIIa (GP IIb IIIa), purified from outdated human platelets (human) (UniProt P08514); test: Fg/GP IIb IIIa ELISA, dilution of the 0.018 mg/ml fraction giving a half maximal response
# [10] = target: glycoprotein IIb IIIa (GP IIb IIIa), purified from outdated human platelets (human) (UniProt P08514); test: Fg/GP IIb IIIa ELISA, dilution of the 0.024 mg/ml fraction giving a half maximal response
# [11] = target: glycoprotein IIb IIIa (GP IIb IIIa), purified from outdated human platelets (human) (UniProt P08514); test: Fg/GP IIb IIIa ELISA, dilution of the 0.113 mg/ml fraction giving a half maximal response
# [12] = target: glycoprotein IIb IIIa (GP IIb IIIa), purified from outdated human platelets (human) (UniProt P08514); test: Fg/GP IIb IIIa ELISA, dilution of the 0.020 mg/ml fraction giving a half maximal response
# [13] = target: glycoprotein IIb IIIa (GP IIb IIIa), purified from outdated human platelets (human) (UniProt P08514); test: Fg/GP IIb IIIa ELISA, dilution of the 0.085 mg/ml fraction giving a half maximal response
# [14] = target: T2, GP IIb IIIa on human platelets (platelet rich plasma) (human, UniProt P08514); test: cell-based or functional assay
# [15] = target: T2, GP IIb IIIa on human platelets …; test: cell-based or functional assay; remark: listed apart in the source
# [16] = four parameter fit, read-out: IC50 in GP IIb IIIa /Fg ELISA
# [17] = Table VI, n in parenthesis, read-out: IC50 (nM) Fg/GP IIb-IIIa solid phase ELISA
molecule,measurement,setting,value
"APRLPQCQGDDQEKCLCNKDECPPGQCRFPRGDADPYCE [decorsin, 39-amino acid RGD protein from the leech Macrobdella decora, GP IIb IIIa antagonist]",IC50,[1]; [16],~1.5 nM
same,potency relative to pentapeptide GRGDV in GP IIb IIIa /Fg ELISA,[1]; ratio of IC50 values,about 27 times
same,activity in GP IIb IIIa /Fg ELISA compared with decorsin purified from whole leech homogenate,[1],identical
same,activity in GP IIb IIIa /Fg ELISA compared with decorsin purified from whole leech homogenate,[1]; listed as synthetic native decorsin,essentially identical
same,activity in platelet aggregation assay compared with native decorsin,[2],essentially identical
same,binding to GP IIb IIIa receptor (words),[3],bound
same,binding to GP IIb IIIa receptor (words),[3]; listed as Decorsin,bind
"GRGDV [GRGDV, reference compound] [listing 1 of 2 here]",IC50,[1]; [17],47.5 ± 6.4 nM
same,IC50,[1]; [16],~40 nM
"GRGDV [GRGDV, reference compound] [listing 2 of 2 here]",IC50,"[2]; read-out: IC50 in platelet aggregation assay, ADP (8 μM) induced, human PRP",~75000 nM
"IPQCRDVKESGQPNDKCRCNGKPCTVGKCTIARGDDNDKCT [ornatin A2, ornatin isoform isolated from P. ornata]",activity of C18 rp HPLC peaks in Fg/GP IIb IIIa ELISA,"[1]; FIG. 8 inset, rechromatography of ornatin A",active
same,half maximal dilution,[1],809
same,total units,[1],405
same,specific activity (U/mg),[1],44505 U/mg
same,IC50,[1]; [17],5.1 nM
"IYVRPTKDELLYCGEFRELGQPDKKCRC [ornatin D, ornatin isoform from P. ornata]",half maximal dilution,[1],1032
same,total units,[1],516
same,specific activity (U/mg),[1],49615 U/mg
same,IC50,[1]; [17],3.2 ± 0.35 nM
"IYVRPTKDELLYCGEFRELGQPDKKCRCDGKPCTVGRCKFARGDADDKCTSA [ornatin C, ornatin isoform isolated from P. ornata]",half maximal dilution,[1],4422
same,total units,[1],2211
same,specific activity (U/mg),[1],39060 U/mg
same,IC50,[1]; [17],4.9 ± 0.5 nM
"IYVRPTKDELLYCGEFRELGQPDKKCRCDGKPCTVGRCNFARGDNDDKCI [ornatin E, ornatin isoform isolated from P. ornata]",half maximal dilution,[1],3610
same,total units,[1],1805
same,specific activity (U/mg),[1],42370 U/mg
same,IC50,[1]; [17],4.5 ± 0.77 nM
"IYVRPTNDELNYCGDFRELGQPDKKCRCDGKPCTVGRCKFARGDNDDKCISA [ornatin B, ornatin isoform isolated from P. ornata]",half maximal dilution,[1],1215
same,total units,[1],608
same,specific activity (U/mg),[1],50670 U/mg
same,IC50,[1]; [17],3.5 ± 0.25 nM
N-3 decorsin: isoform which lacks the first three amino terminal residues of decorsin (LPQCQGDDQEKCLCNKDECPPGQCRFPRGDADPYCE),IC50,[1]; [16],~1.5 nM
same,activity in platelet aggregation assay compared with native decorsin,[2],Comparable activities
decorsin,times more potent than GRGDV,[4],27 fold
same,IC50,[5],1.5 nM
kistrin (from UniProt P30403),"IC50 (nM), human platelet aggregation assay (ADP activation)",[6],137 nM
same,IC50,[7],4.6 nM
kistrin [reference compound],IC50,[1]; [17],4.6 ± 0.06 nM
same,IC50,"[2]; read-out: IC50 (nM) human platelet aggregation assay, Table VI, ADP activation, n in parenthesis",137 nM
ornatin A2,IC50,[7],5.1 nM
same,specific activity (U/mg),[8],44500 U/mg
same,half maximal dilution,[9],809
ornatin B,IC50,[7],3.5 nM
same,specific activity (U/mg),[8],50700 U/mg
same,half maximal dilution,[10],1220
ornatin C,IC50,[7],4.9 nM
same,specific activity (U/mg),[8],39100 U/mg
same,half maximal dilution,[11],4420
ornatin D,IC50,[7],3.2 nM
same,specific activity (U/mg),[8],49600 U/mg
same,half maximal dilution,[12],1030
ornatin E,IC50,[7],4.5 nM
same,specific activity (U/mg),[8],42400 U/mg
same,half maximal dilution,[13],3610
APRLPQCQGDDQEKCLCNKDECPPGQCRFPRGDADPYCE (other) [decorsin],"IC50, inhibition of ADP-induced platelet aggregation in human platelet rich plasma",[14],~300 nM
same,"IC50 (nM), human platelet aggregation assay (ADP activation)",[15],314 nM
B1,"IC50 (nM), human platelet aggregation assay (ADP activation)",[15],324 nM
IYVRPTKDELLYCGEFRELGQPDKKCRCDGKPCTVGRCNFARGDNDDKCI (other) [ornatin E],"IC50 (nM), human platelet aggregation assay (ADP activation)",[15],516 nM
GRGDV,"IC50, inhibition of ADP-induced platelet aggregation in human platelet rich plasma",[14],~75000 nM
same,IC50,[7],47.5 nM
same,IC50,[5],40 nM
